Here are results for 18 sequences from a protein production outcome set (Wang et al. 2014).

This series is described as follows: label from the status in PepcDB records.

As to “MKFSFHTCESNYFKDPFFYIMLSISILFSYLFSYYTILKYVSLNATAYDLGIYVSILENTMHGHVMYANPLLINSFSEHFSPFLFVIYPIYWFFPYVKTLLIMQSVMISFSGLVIYLLAREIFFINNFKKDILLEMLALFISTSYILSPYIESPLSFDFHLMPFLILFVPLSFYFFMKKYKILNLIVLILIISLHSLFVIMVFFIISYQFIFRIRNEGNLNCHKIIRTIANINISDNLKKTPKSKYVLQKIVRSKTLIKIIITLILLVGYLYFASLMKTFIASGAVALSPPSTMSTGSVSSSLAGLFTDLFTRPMLIESAFLINFPDKIIFAFYAFANTGFLVFLDPLSLLMDIPYFLYAYLSSYGPYYSLGYQYSTMIIPFIFIGALFGIRKIVQSARATDSDDVRRTIKKILVGVISIVIVSSLFELPLDPISPRNIFIESGSMANFHEFAYNNGSEIAFELQKEIGESDPYLLTINNLYPVFAKDTNAYVIAFAWNSQLRNLIYGYHIEYLVNQPDSFWSNQFNPSMNDLIDNNTFISHYGVYMESFGQDGVIVYKLNYTGLPVLMIPYSAYLPATSFYIAAGEYNYSIVNGSYVYHNTTMGTAWFGPYTTLLPGRYNITYYLESVNSEANSSILLDVTTNAGTVTLNQTVINSSELPNGDLEEVTLHLTLNETKYSVEFRGMAIDWTGTLIFKGVKYSVY”, the protein production result is listed as “failed”.

“MKFSVLMSLYVKEQPAFLAECLASLTAQSYPADEIVILYDGKVTAELEVVVQQYAPILPLKQVRFAENRGLGNTLNDGLKYCSHEWVFRMDSDDICDVDRFAKQVAFIQQHPDVVVFGGQIAEFGQNVQDIVAYRAVPTTHQQIVKFSRFRCPFNHMTVAYQKSKVLAVGGYQGLQEDYTLWIKMIASGFLTANLTDVLVYARVGNGMVGRRRNFTQFKYEWQLYRLKTQAKLHSRIVGLGIFALRAIPRILPLAILQRIYKLLRK”: the protein production entry was “failed”. For “MKFSYKFSNLLGTIYRNGNLVFTPDGNSVISPVGNRITVYDLKNNKSRTLSLESRYNYTNIALSPDGSLLIAVNEKGEAQLISMMSCTVIHRHKFQTGVQCICFSPNGAFFAVAVQNVVLIFCAPGEITGEYNPFVLRRRFLGGFDDVTWLDWSSDSRLLAIGCRDSSTKIVAINYTKNFRTYNLSGHTDAIVACFFEANSLHLNTISRNGQLCLWECSLAPSDLEDAERPKIAPPQRKKEKKAVSDNESEDDVENVVEKDALKEESTKEAEDVNHIKNEDETKSHPFFYKKITRHYLADEPRKEQRDVQLTAANYNTRTKVLVVAFSSGAFYLYELPDVNMIHSLSISDYPISAALFNCTGDWVALASREIGQLLVWEWQSEQYIMKQQGHSSEMTCIAYSSDGQFIATGGEDSKVKLWNTQSSFCFVTFSEHTSGVTGIQFSRNKKFLVSSSLDGTVRAFDVNRYRNFRTFTSPNPAQFSCVAVDYSGELVVAGGQDVFDIFLWSVKTGKLLEIISGHEGPVVSIAFSPVATSSTLVSGSWDKTVKIWNCLESNSEHETIDAVSDVTNVTFSPSGEEIAVATLSGNITIFDIKSAGQVTTIEGRNDLSAGRLETDIITARKNAQANYFSTIEYSADGECILAAGKSANICIYHVREAILLKKFEITQNHSLDGLNDFISRKHLSEFGNMALVEEREELEGGRVAIRLPGVQRGDMSSRRFQQEVRVFSVKFSPTGQAFAAAGTEGLCIYALDKGVVFDPFDLSLEVTPKAVHESLKQQNYTKALVMSLKLNEPNLIALVLERVPYKDVELVCADLSPEFAQRLLQQLARQLQSTPHIEFYLQWSCCLLTKHGNQDGVFQHTGLLALHEVLSRKYEMLNKICDYNKYTLKVLLDRADKLEQKNEGKPNATEEDSDEEMLLIRSKDDENGQAQFSDEEESDSGSEEEMA”, the protein production result is reported as “failed”.

Regarding “MKFWRPGITGKLFLAIFATCIVLLISMHWAVRISFERGFIDYIKHGNEQRLQLLSDALGEQYAQHGNWRFLRNNDRFVFQILRSFEHDNSEDKPGPGMPPHGWRTQFWVVDQNNKVLVGPRAPIPPDGTRRPILVNGAEVGAVIASPVERLTRNTDINFDKQQRQTSWLIVALATLLAALATFLLARGLLAPVKRLVDGTHKLAAGDFTTRVTPTSEDELGKLAQDFNQLASTLEKNQQMRRDFMADISHELRTPLAVLRGELEAIQDGVRKFTPETVASLQAEVGTLTKLVDDLHQLSMSDEGALAYQKAPVDLIPLLEVAGGAFRERFASRGLKLQFSLPDSITVFGDRDRLMQLFNNLLENSLRYTDSGGSLQISAGQRDKTVRLTFADSAPGVSDDQLQKLFERFYRTEVPATVPAGSGLGLAICLNIVEAHNGRIIAAHSPFGGVSITVELPLERDLQREV”, the protein production result is “failed”. In the case of “MKFYIIRHAKVNMRWPKKCTSDEFNQACKKYDGADIVAFQGSLELPVSNIYTSELIRTKQTAQQLFPLQSYQIDKRLNEVPLKAAFSSKIKLPLIFWNILGRLQWLFNSSKQEGIKASKERAEKFCDDLIYKGEDAILITHGFFMITLLKELKKRGFIEKDNGFNFDNLQVIEVKKRLLVY”, the protein production entry was “failed”. Regarding “MKGDRERQADLSPREGPSVPRPVLLQTEPRSVFPGDTSRPWSPAALPARAPGDRWCGRRRRSPGNASYLDSDISEKSRSASEEEKSHALGACHCAENAFQDSQKSLVPSRGQKMTSGTKAKVPLTALSQKWKRDREQTLEAAYVPVVVDPRGQNPDTSIRFSFYNSQYSNSLNPFYTLQKPTCGYLYQRETDHTRKRFDVPPANLILWRT”, the protein production result is “failed”.

As to “MKGNALCTGEPVMTIETRGGGSEDIAVLPLDPTGNITRLFIRERCNDSSDPECKTGQWRLGSVDISRENTPASTRYAWRPGNNASEDDFEPLGMSLVPGNTPGEGTLFVIDIARPQSVRIWQLDISGGEITKATLATPADTQTGARLTAANSLQAVRNDDSRSFHLTITRFDEYGLLPFRPTPWPALVRINNGVIQPPPAQDFRNANGIIRPCAGCDLVIASYWERRLRFVSKENGEIGEYASAELPIRPDNLRLDGERILIAGQRRVDLTALNLLVSPHIPSPSGVYAIDTRSLGPDTVPTLLWEGGWKHGHSVATAVALPGNRLAIGQINTPGILIADCSPLEHHHHHH”, the protein production entry is given as “failed”. For “MKGSLIVIVFFCVGCIMGVFNKFQFDTHTVSMYILYALMLQVGISIGSNKNLKAIISHLHPKMLLIPLGTITGTLLFSALASILLSQWSVFDCMAVGSGFAYYSLSSILITQFKEPTIGIQLATELGTIALLTNIFREMMALLGTPLIKKYFGKLAPISAAGVNSMDVLLPSISRYSGKEMIPIAILHGILIDISVPVFVSFFCNL”, the protein production entry is “failed”. For the sequence “MKHAKDIKVHKFNGPVKNDGKISVLVLGADKASGGKSRSDSIMVVQYDYIHKKMKMMSVMRDIYAEIPGYQNYKINAAYSLGGPELLRKTLNKNLGINPEYYAVIDFTGFEKMIDELEPNGVPMDVEKDMSENIGVSLKKGHHRLNGKELLGYARFRHDEEGDFGRVRRQQQVMQTLKKELVTPSSVIKLPKVAGILRGYINTSMPNSAIFQTGISYGIRGDKNVESLTVPINNSYQNINTNNDGSALEIDKEKNKKAVKEFLNNLEHHHHHH”, the protein production result is recorded as “failed”. The value for “MKHEAIGHDTIAKFLLTSGSTGNPKAVINTQRMICANQVMIREAMAFLKDEPPVIVDWLPWNHTFGGNHNIGLTLFNGGSMYIDDGKPTPAGIASTIRNLREIAPTVYFNVPKGYESLLPVLREDQQLRKLFFSRLHAMFFSGASLAAHVWNGLDEVAVAETGARVPMLTGLGATETAPFFMSVTPQTSRSGHVGLEHHHHHH” was “failed”; that for “MKHFDYSRGLKAPYSLQVIKSPKGKIVWYFAQPLSLAYLVMLFLGIVLTGIFWKFVPLPLIFGINLNLMIMLYFPNKVARWYTETEFEGKTGLAFLKDGFVYVKNYVLDNRSIISFERVKEIEEFSFKR” was “failed”; that for “MKHMKTFVIIGLSNLGIHLLEDLSRLDCQIIIIDTSKELIEEYDVISTESFVVEQFTKNALKRIIPVDTDAVVIDFDDDLGKSALVTHYCNLLGLKEICVKTENRDDAEILKTLGATKIIFPSKDAARRLTPLLVSPNLSTYNIIGYDIIVAETVIPKEYVGKTLFEADLRRECGITVIAVRNLSNSRYEFVDGDYFFLKDDKIVICGKPDSIENFTNNKDLIKDLISGSKEDENLNKDAEKKSRFLGIFNFMKIFQKDRKDN” was “failed”.

In the case of “MKHSLSIIFILIAAMMWGTTGTAQVFAPAEAHPIIIGASRLAVGGLALFIFVMAQRKFQLRGWPVLPTFIAALSMAAYQPFFFSAVSITGVAVGTVVAIGSAPIIAGLLDWVIQRKPPGPTWGIATILAIAGCLLLTLPGEEVTVSPVGFLLAIGAGLSFAVYTAASKKLLQQQPSEAVVAVVFSLSALFLVPLFFLYDLSWLTEFRGIIVVLHLGIVATAIAYLLFTRGLTGVASSTAVTLALAEPLTAALLGVFLVGEALSFIAWGGVLLLLLGLAVLTGFTGARTPSTRFMRNKKDKVNVE”, the protein production result was “failed”. The value for “MKHVGDDVVAIISQDGKVIREIPLTGHKGNEQFTIKGKGAQYNLMEVDGERIRIKEDNSPDQVGVKMGWKSKAGDTIVCLPHKVFVEILEHHHHHH” was “not failed”. With “MKIAALYDIHGNYPALKEVLKQVKKLSPDLVVLGGDLIAGPMPLETLSLLKHVSTTFKTVGIMGNNDQDIVDIYAKKRVGLSRKATEQLTWIANQLSYKQVSFLRNLLPSISIGNYFFCHAVKNDNTTVFSPQQNKAYIETLFKGVQESYIICGHTHIQFELSLPNKKIINAGSIGMPFSNQFGAQWLWLDDNRIEYKRTIFNQQAAIQLISQTEYPFKNEFLEHHHHHH”, the protein production result is on record as “failed”. For “MKIAIFRTSGVIAPFVIDGYITGFREAGHEVWGIDLTTEGLDFTKLRSFQPDFVLAYGYNGFCKSPNGYALRELGIPLVSLHYDCPYLARNDGLSDEINNFPEYYYEFVWDDSFLELLRNDGTENCDHILLATDPTWFHPIALDSPCIESSVCFVGGVSAHVEQNCVGIELVDKFIDEVIYSKLHNMEVPTFEICKQFFSTPEYRAVHQVYTTEPASFWQMIYYKIHGKGSTVMRKYILDSIEGVDLHIYGGGNGWDKPNAIFHEKVPYGTELSKAFQQYALNLNISSLQLEKAINNRPFDAYASKAFMLNDYRDDMIRAFPAHWEEITFRNLDEFAEKGEYFLTHAQERRELVADLYDHTLRHHTYRHRADQIVEKLAAINFLNRPQQPKTQTSRSILAIDEDNYADYCKDLNTCPVCGGTEFNLKFSFLGHEDYKSTFDQCMDCQAVFLNPCPTDEYLTKFYNEIYYSPQHRQKMGWDPNLDTPNPNSFFLHQRRMDFVEKYVPEELKFPRGKLLDIGCSTGAFLWEASLRYWDVCGIEISDKAAEVAREKYGLAVTTGTLLESSFDDETFDVVTAWDVLEHIANPAPFLTILRRILKQGGLILLNTPNINSADAAYAGEQWRHLDAPLHPVLYDFISIRILLKKYGFQCLEVSSGDEYHGQMKIAARKA” the value was “failed”; for “MKICLIDETGTGDGALSVLAARWGLEHDEDNLMALVLTPEHLELRKRDEPKLGGIFVDFVGGAMAHRRKFGGGRGEAVAKAVGIKGDYLPDVVDATAGLGRDAFVLASVGCRVRMLERNPVVAALLDDGLARGYADAEIGGWLQERLQLIHASSLTALTDITPRPQVVYLDPMFPHKQKSALVKKEMRVFQSLVGPDLDADGLLEPARLLATKRVVVKRPDYAPPLANVATPNAVVTKGHRFDIYAGTPVLEHHHHHH”, “not failed”. The value for “MKIDKLFIKSIILTFLSMNLLFMILIMLGDLFVNLLNYLEKNIGLKDILYIYYLYLPKAFSDGVALSFLFAISNLIGNLSMRNEIIGLFSCGVPLTRILKPIILISIFISVVLFFFDNYLVIDTIARRDVLIKNSIGDSRSGDKTIIIRDFAREIYNIKSYDIDENTFANLMIIIKDNKDEFQTRYDINKAEWKDNKWRLYGIREFVKVGKKIKENAYDVLDGTGIIKLAPDYIRTVMLSSKALNFTKLINWISFLKAERLNYSDAFFDLLNRIFFSFRLILLSFTVGFIALALKKNIFILSLLNSIAFAVVYVISIVIFNFLADLGYLHIYIASSFTTIFFLIINFFVYRIVRK” was “failed”.
